Reference: PMC8158265, “Inhibition of catechol-O-methyltransferase by natural pentacyclic triterpenes: structure–activity relationships and kinetic mechanism” (Journal of Enzyme Inhibition and Medicinal Chemistry, 2021)

Substrate: O=c1oc2c(O)c(O)ccc2cc1-c1nc2ccccc2s1
Test: Inhibition kinetics of human S-COMT catalysed O-methylation of 3-BTD
Type: biochemical
Conditions: other: 3-BTD as substrate, no inhibitor; pH 7.4; 37.0 °C

B1: recombinant human S-COMT (Homo sapiens) (protein)
chain: MGDTKEQRILNHVLQHAEPGNAQSVLEAIDTYCEQKEWAMNVGDKKGKIVDAVIQEHQPSVLLELGAYCGYSAVRMARLLSPGARLITIEINPDCAAITQRMVDFAGVKDKVTLVVGASQDIIPQLKKKYDVDTLDMVFLDHWKDRYLPDTLLLEECGLLRKGTVLLADNVICPGAPDFLAHVRGSSCFECTHYQSFLEYREVVDGLEKAIYKGPGSEAGP
notes: made in house
Protein B1 has a Km of 0.38 ± 0.029 µM and a Vmax of 13.8 ± 0.30 nmol/min/mg protein.
